# In patent US20260125454A1 (SHANGHAI JUNSHI BIOSCIENCES, published 2026):
# Residue numbers refer to the chain shown, from its start.
# B1: hu219 (antibody, V domains shown)
# VH: QVQLVQSGAEVKKPGASVKVSCKASGYTFTDYNMHWVRQAPGQGLEWMGYIYPYNGHTVYNQKFRNRVTLTVDTSSSTAYMELRSLRSDDTAVYYCAREGLGGYWGQGTLVTVSS
# VL: DIVLTQSPDSLAVSLGERATINCKASQNIDYDGYTYLNWYQQKPGQPPKVLIYSIFNLESGVPDRFSGSGSGTDFTLTISSLQAEDVAVYYCQQSNEVPYTFGQGTKLEIK
# notes: 3H10 HC-2/3E5 LC-1
# B2: hu217 (antibody, V domains shown)
# VH: B1 VH
# VL: DIVLTQSPDSLAVSLGERATINCQASQNIDGNTYMNWYQQKPGQPPKVLIYSIFNLESGVPDRFSGSGSGTDFTLTISSLQAEDVAVYYCQQSNDYPYTFGQGTKLEIK
# notes: 3H10 HC-2/2B8 LC2-1
# B3: hu210 (antibody, V domains shown)
# VH: B1 VH
# VL: DIVLTQSPASLAVSPGQRATITCKASQNIDYDGYAYLNWYQQKPGQPPKVLIYSVFNLESGVPARFSGSGSGTDFTLTINPVEADDTANYYCQQSNEFPYTFGQGTKLEIK
# notes: 3H10 HC-2/1A2 LC2-2
# B4: hu24 (antibody, V domains shown)
# VH: B1 VH with G44R, Y52F, H57V, T58A, Q62R, N66S, R84S, D89E
# VL: B1 VL
# notes: 1B2 HC-2/3E5 LC-1
# B5: hu125 (antibody, V domains shown)
# VH: B1 VH with Y50N, H57G, R65N
# VL: B1 VL with Y31F, T35A, L37M, Q42H, I55V, N96H
# notes: 2B8 HC1-2/1F5 LC1-4
# B6: hu7 (antibody, V domains shown)
# VH: B1 VH with Y52F, H57V, T58A, Q62R, N66S, V72I
# VL: B3 VL with Y31F, L37M, N96H, F98V
# notes: 1B2 HC-1/1F5 LC1-3
# B7: hu60 (antibody, V domains shown)
# VH: B1 VH with Y32F, H57D, T58V, K63N, R65T
# VL: B1 VL with Y31F, T35A, L37M, Q42H, I55V, N96H
# notes: 1F5 HC-3/1F5 LC1-4
# B8: hu191 (antibody, V domains shown)
# VH: B1 VH with A24T, G44R, Y52S, G56A, H57G, V59A, R65K, N66F, R84S, D89E
# VL: B2 VL
# notes: 3E5 HC-4/2B8 LC2-1
# B9: hu2 (antibody, V domains shown)
# VH: B1 VH with Y52F, H57V, T58A, Q62R, N66S, V72I
# VL: B3 VL
# notes: 1B2 HC-1/1A2 LC2-2
# B10: hu115 (antibody, V domains shown)
# VH: B1 VH with Y50N, H57G, R65N, R84S, S85R
# VL: B1 VL
# notes: 2B8 HC1-1/3E5 LC-1
# B11: hu220 (antibody, V domains shown)
# VH: B1 VH
# VL: B1 VL with D32G, T35S, L37M, I55V, V98A
# notes: 3H10 HC-2/3H10 LC2-1
# B12: hu22 (antibody, V domains shown)
# VH: B1 VH with G44R, Y52F, H57V, T58A, Q62R, N66S, R84S, D89E
# VL: B2 VL
# notes: 1B2 HC-2/2B8 LC2-1
# B13: hu35 (antibody, V domains shown)
# VH: B1 VH with T30I, Y32F, G44R, H57D, T58V, K63N, R65T, R84S, D89E
# VL: B2 VL
# notes: 1F5 HC-1/2B8 LC2-1
# B14: hu116 (antibody, V domains shown)
# VH: B1 VH with Y50N, H57G, R65N, R84S, S85R
# VL: B1 VL with D32G, T35S, L37M, I55V, V98A
# notes: 2B8 HC1-1/3H10 LC2-1
# B15: hu180 (antibody, V domains shown)
# VH: B1 VH with Y52S, H57G, V59A, R65K, N66F, R84S, S85R, A92V
# VL: B1 VL
# notes: 3E5 HC-3/3E5 LC-1
# B16: hu152 (antibody, V domains shown)
# VH: B1 VH with A24T, G44R, Y52S, H57G, V59A, R65K, N66F, R84S, D89E
# VL: B2 VL
# notes: 3E5 HC-1/2B8 LC2-1
# B17: hu61 (antibody, V domains shown)
# VH: B1 VH with Y32F, H57D, T58V, K63N, R65T
# VL: B2 VL
# notes: 1F5 HC-3/2B8 LC2-1
# B18: hu9 (antibody, V domains shown)
# VH: B1 VH with Y52F, H57V, T58A, Q62R, N66S, V72I
# VL: B2 VL
# notes: 1B2 HC-1/2B8 LC2-1
# B19: hu204 (antibody, V domains shown)
# VH: B1 VH with L70M, R98K
# VL: B2 VL
# notes: 3H10 HC-1/2B8 LC2-1
# B20: hu142 (antibody, V domains shown)
# VH: B1 VH with Y50N, G56A, H57G, R65N, R84S, S85R
# VL: B1 VL with D32G, T35S, L37M, I55V, V98A
# notes: 2B8 HC1-3/3H10 LC2-1
# B21: hu113 (antibody, V domains shown)
# VH: B1 VH with Y50N, H57G, R65N, R84S, S85R
# VL: B2 VL
# notes: 2B8 HC1-1/2B8 LC2-1
# B22: hu48 (antibody, V domains shown)
# VH: B1 VH with Y32F, G44R, H57D, T58V, K63N, R65T, R84S, D89E
# VL: B2 VL
# notes: 1F5 HC-2/2B8 LC2-1
# B23: hu141 (antibody, V domains shown)
# VH: B1 VH with Y50N, G56A, H57G, R65N, R84S, S85R
# VL: B1 VL
# notes: 2B8 HC1-3/3E5 LC-1
# B24: hu112 (antibody, V domains shown)
# VH: B1 VH with Y50N, H57G, R65N, R84S, S85R
# VL: B1 VL with Y31F, T35A, L37M, Q42H, I55V, N96H
# notes: 2B8 HC1-1/1F5 LC1-4
# B25: hu8 (antibody, V domains shown)
# VH: B1 VH with Y52F, H57V, T58A, Q62R, N66S, V72I
# VL: B1 VL with Y31F, T35A, L37M, Q42H, I55V, N96H
# notes: 1B2 HC-1/1F5 LC1-4
# B26: hu139 (antibody, V domains shown)
# VH: B1 VH with Y50N, G56A, H57G, R65N, R84S, S85R
# VL: B2 VL
# notes: 2B8 HC1-3/2B8 LC2-1
# B27: hu12 (antibody, V domains shown)
# VH: B1 VH with Y52F, H57V, T58A, Q62R, N66S, V72I
# VL: B1 VL with D32G, T35S, L37M, I55V, V98A
# notes: 1B2 HC-1/3H10 LC2-1
# B28: hu138 (antibody, V domains shown)
# VH: B1 VH with Y50N, G56A, H57G, R65N, R84S, S85R
# VL: B1 VL with Y31F, T35A, L37M, Q42H, I55V, N96H
# notes: 2B8 HC1-3/1F5 LC1-4
# B29: hu165 (antibody, V domains shown)
# VH: B1 VH with G44R, Y52S, H57G, V59A, R65K, N66F, R84S, D89E
# VL: B2 VL
# notes: 3E5 HC-2/2B8 LC2-1
# B30: hu102 (antibody, V domains shown)
# VH: B1 VH with G44R, I51V, H57G, T58S, V59A, R65K, N66S, R84S, D89E
# VL: B1 VL
# notes: 2A2 HC-1/3E5 LC-1
# B31: hu11 (antibody, V domains shown)
# VH: B1 VH with Y52F, H57V, T58A, Q62R, N66S, V72I
# VL: B1 VL
# notes: 1B2 HC-1/3E5 LC-1
# B32: hu203 (antibody, V domains shown)
# VH: B1 VH with L70M, R98K
# VL: B1 VL with Y31F, T35A, L37M, Q42H, I55V, N96H
# notes: 3H10 HC-1/1F5 LC1-4
# B33: hu178 (antibody, V domains shown)
# VH: B1 VH with Y52S, H57G, V59A, R65K, N66F, R84S, S85R, A92V
# VL: B2 VL
# notes: 3E5 HC-3/2B8 LC2-1
# B34: hu126 (antibody, V domains shown)
# VH: B1 VH with Y50N, H57G, R65N
# VL: B2 VL
# notes: 2B8 HC1-2/2B8 LC2-1
# B35: hu216 (antibody, V domains shown)
# VH: B1 VH
# VL: B1 VL with Y31F, T35A, L37M, Q42H, I55V, N96H
# notes: 3H10 HC-2/1F5 LC1-4
# B36: hu206 (antibody, V domains shown)
# VH: B1 VH with L70M, R98K
# VL: B1 VL
# notes: 3H10 HC-1/3E5 LC-1
# B37: hu1 (antibody, V domains shown)
# VH: B1 VH with Y52F, H57V, T58A, Q62R, N66S, V72I
# VL: B3 VL with D85N
# notes: 1B2 HC-1/1A2 LC2-1
# B38: hu207 (antibody, V domains shown)
# VH: B1 VH with L70M, R98K
# VL: B1 VL with D32G, T35S, L37M, I55V, V98A
# notes: 3H10 HC-1/3H10 LC2-1
# Biological target: T1, Biotin-huCGRPaSA (human, not fully specified; biotin (position not given))
# T1 construct: exact construct ('aSA') not explained; also called Biotin CGRPaSA; full-length (1-37) CGRP
# T1 peptide: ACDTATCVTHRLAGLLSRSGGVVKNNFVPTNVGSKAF
# Assay: ELISA, supernatant; relative to chimeric C245
# Protocol: Biotin CGRPaSA was diluted with PBS (Hyclone) to 1.0 μg/mL, and the dilution was added to a microplate at 100 μL/well. The plate was let stand in an incubator at 37° C. and coated for 90 min and then washed, and 2% BSA was added to the plate at 200 μL/well. The plate was incubated in an incubator at 37° C. for 90 min and then washed. The humanized antibodies in Table 8 and the reference antibody (chimeric antibody C245) were diluted to 1000 ng/mL with a diluent (2% BSA) with a dilution factor of not more than 10. Then, the chimeric antibodies and the reference antibody were serially 2.5-fold diluted on a sample dilution plate. All the chimeric antibody solutions and the reference antibody solution were added into plates at 100 μL/well, and the plates were incubated in a thermostat incubator at 37° C. for 60 min and washed. An HRP-conjugated goat anti-human antibody IgG (manufacturer: Sigma, Cat. No. A0170; Fc specificity) was diluted 5000-fold with 2% BSA and added into the plates at 100 μL/well, and the plates were incubated in the thermostat incubator at 37° C. for 60 min and washed. Chromogenic reagent TMB was carefully added at 100 μL/well to avoid bubbles, and the system was incubated at 37° C. for 15 min away from light for chromogenic reaction. Finally, a 2 M hydrochloric acid solution was added at 100 μL/well to stop the reaction while avoiding bubbles, and the plates were read on a microplate reader within 10 min (wavelength: 450/620 nm).
row,Binder,"Relative binding activity, % [%]"
1,B1,78
2,B2,73
3,B3,73
4,B4,73
5,B5,34
6,B6,80
7,B7,11
8,B8,68
9,B9,64
10,B10,98
11,B11,83
12,B12,76
13,B13,65
14,B14,88
15,B15,87
16,B16,109
17,B17,56
18,B18,45
19,B19,68

row,Binder,"Relative binding activity, % [%]"
1,B20,84
2,B21,44
3,B22,40
4,B23,86
5,B24,14
6,B25,72
7,B26,84
8,B27,73
9,B28,102
10,B29,87
11,B30,94
12,B31,49
13,B32,33
14,B33,65
15,B34,79
16,B35,58
17,B36,70
18,B37,58
19,B38,56
